Positions count from the first letter of the chain named.
Assays:
Assay in all cases: BLI (Octet), biotinylated mAb on streptavidin sensors, culture supernatant
[1] = molecular target: T1, RSV181178 (I152M + K226M) (respiratory syncytial virus, subgroup B …, UniProt O36634 26-109; P13843 137-540)
T1 construct: Measured in crude culture supernatant, no furin co-transfection
T1 chain 1: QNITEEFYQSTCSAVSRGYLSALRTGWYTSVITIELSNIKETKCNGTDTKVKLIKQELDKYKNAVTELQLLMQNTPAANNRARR
T1 chain 2: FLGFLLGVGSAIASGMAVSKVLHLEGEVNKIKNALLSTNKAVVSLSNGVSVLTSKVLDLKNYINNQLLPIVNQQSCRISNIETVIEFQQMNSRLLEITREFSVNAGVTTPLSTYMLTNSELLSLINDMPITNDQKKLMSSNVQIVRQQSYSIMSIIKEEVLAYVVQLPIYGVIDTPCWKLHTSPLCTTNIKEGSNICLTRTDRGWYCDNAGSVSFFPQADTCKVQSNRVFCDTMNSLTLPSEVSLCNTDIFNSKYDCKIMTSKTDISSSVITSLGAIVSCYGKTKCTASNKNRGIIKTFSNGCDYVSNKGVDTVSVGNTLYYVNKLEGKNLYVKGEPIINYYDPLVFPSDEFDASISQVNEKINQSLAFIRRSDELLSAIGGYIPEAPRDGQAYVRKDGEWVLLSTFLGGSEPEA
Method: (§1) Quantitative Octet (BioLayer Interferometry) was used for measuring protein concentration in the supernatants at day of harvest and after 7 or 30 days storage at 4° C. CR9501 (an antibody specifically recognizing pre-fusion RSV F protein, which comprises the variable regions of the antibodies 58C5 as described in WO2012/006596) and CR9506 (recognizing pre-fusion and post-fusion RSV F protein and comprising a heavy chain variable region comprising SEQ ID NO: 21, and a light chain variable region comprising SEQ ID NO: 22) were biotinylated by standard protocols and immobilized on Streptavidin biosensors (ForteBio, Portsmouth, UK).
(§2) Afterwards, the coated biosensors were blocked in mock cell culture supernatant. A quantitative experiment was performed as follows: temperature 30° C., shaking speed 1000 rpm, time of the assay 300 sec. The concentration of the protein was calculated using a standard curve. The standard curve was prepared for each coated antibody CR9501 and CR9506 using the pre-fusion RSV FA protein (SEQ ID NO: 19; described previously in WO17174568) diluted in mock medium. […] The data analysis was done using the ForteBio Data Analysis 10.0.1.6 software (ForteBio).

[2] = molecular target: T2, RSV180915 (I152M + K226M + D486N + S215P) (respiratory syncytial virus, subgroup B …, UniProt O36634 26-109; P13843 137-540)
T2 chain 1: T1 chain 1
T2 chain 2: T1 chain 2 with S79P, D350N
Method: as §1, §2

[3] = molecular target: T3, RSV180917 (I152M + K226M + D486N + S215P + L203I + P101Q + D489Y + T357R + N371Y) (respiratory syncytial virus, subgroup B …, UniProt O36634 26-109)
T3 construct: also called RSV181917
T3 chain 1: T1 chain 1 with P76Q
T3 chain 2: T1 chain 2 with L67I, S79P, T221R, N235Y, D350N, D353Y
Method: as §1, §2

[4] = molecular target: T4, RSV180907 (tag-free, RSV FB signal peptide) (respiratory syncytial virus, subgroup B …, UniProt O36634 26-109; P13843 137-540)
T4 construct: Same mature protein as RSV180913, expressed with the RSV B signal peptide; measured in culture supernatant, furin co-transfected
T4 chain 1: T1 chain 1 with P76Q
T4 chain 2: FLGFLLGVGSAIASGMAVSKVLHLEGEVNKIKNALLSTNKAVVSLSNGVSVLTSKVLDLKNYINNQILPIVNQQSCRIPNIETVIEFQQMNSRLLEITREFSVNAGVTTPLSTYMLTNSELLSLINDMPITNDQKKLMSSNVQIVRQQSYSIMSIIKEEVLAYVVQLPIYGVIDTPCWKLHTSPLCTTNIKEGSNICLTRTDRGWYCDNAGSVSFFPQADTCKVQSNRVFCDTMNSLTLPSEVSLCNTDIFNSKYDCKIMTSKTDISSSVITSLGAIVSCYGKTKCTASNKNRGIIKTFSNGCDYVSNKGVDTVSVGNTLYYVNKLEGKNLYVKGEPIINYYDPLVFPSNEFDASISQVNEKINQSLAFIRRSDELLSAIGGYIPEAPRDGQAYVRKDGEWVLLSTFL
Method: as §1, §2

Measured: binding result

B1: CR9506 (antibody, human IgG1, kappa, V domains shown)
VH: EVQLVQSGAEVKKPGSSVKVSCKASGGTFSRSLITWVRQAPGQGLEWMGEISLVFGSAKNAQKFQGRVTITADESTSTAHMEMISLKHEDTAVYYCAAHQYGSGTHNNFWDESELRFDLWGQGTLVTVSS
VL: DIVMTQSPSSLSASVGDRVTIACRASQSIGTYLNWYQQKPGKAPKLLIYAASSLQSGVPSRFSGSGSGTHFTLAISSLQAEDFATYSCQQSYTIPYTFGQGTKLEIKR
notes: Biotinylated for Octet; coated and also used HRP-labelled as detection antibody in the ELISA
binds: all assays above

Source: patent publication US20240132548A1 (Janssen / Centocor, published 2024)
